Reference: PMC5171805

What was measured:
MEDI1912 IgG (human) [1] = assay: native MS; nESI-IMS-MS, 1 mg/mL dialysed into 150 mM ammonium acetate, pH 6; dimer estimated with respect to the monomer ion intensity
[2] = target: human NGF (construct not stated) (human) (UniProt P01138); assay: not stated; Kd for the antigen; method and data in Supplementary Table 2
MEDI1912 IgG (human) [3] = assay: AUC; sedimentation velocity, 1 mg/mL, 20 °C, 20 mM sodium succinate, 125 mM arginine, pH 6.0 or 150 mM ammonium acetate, pH 6; 28,000 rpm; SEDFIT
MEDI1912_STT (human) = assay: SPR; Biacore 2000, HBS-EP buffer; 100 RU MEDI1912 or MEDI1912_STT IgG amine coupled to a C1 sensor chip; two-fold dilutions of βNGF (10 nM to 78 fM) at 50 µl/min, 300-3600 s dissociation; 1:1 Langmuir fit
MEDI1912 (human) = assay: as above

dimer as percent of the monomer ion intensity (MEDI1912 IgG (human) [1])	stoichiometry N (MEDI1912 IgG (human) [1])	Kd [2]	percent dimer (MEDI1912 IgG (human) [3])	stoichiometry N (MEDI1912 IgG (human) [3])	koff (MEDI1912_STT (human))	kon (MEDI1912_STT (human))	koff (MEDI1912 (human))	kon (MEDI1912 (human))	Substance
11.4%	< 4	1.6 to 9.8 pM	> 75%	2	–	–	–	–	MEDI1912 IgG (antibody)
–	–	–	–	–	3.2e-05 to 0.00015 s⁻¹	1.8e+07 M⁻¹ s⁻¹	3.3e-05 to 0.0002 s⁻¹	2.1e+07 M⁻¹ s⁻¹	recombinant βNGF (R&D Systems) (from UniProt P01138 122-241) (ligand)
